Experimental data taken from publication PMC7509637 (Advanced Science, 2020).
“Also recorded” adds a separate entry of the source.

How the values were obtained:
Aβ [1] = target: T1, Aβ (Homo sapiens, UniProt P05067); test: ThT kinetic assay of Aβ fibrillization (seeding with FapC species, Aβ seeds, bLgS); assay type: biochemical; details: 37 °C, n = 3
T1 construct: purchased Anaspec Inc
Protocol: FapC seeds (FapCS) were produced by FapC fibrils of three different ages. The FapC monomers were produced as described^[ ^45 ^] and stored in 6 M GdmCl. Prior to fibrillization, the FapC monomers were purified via a PD10 desalting column. FapC monomers (1 mg mL^−1 or 40 × 10^−6 M) were incubated in deionized water at 37 °C for 1 week to produce mature fibrils and at 37 °C or 25 °C for 4 d to obtain young fibrils. Deionized water was used to make FapC fibrils as it is convenient to transfer the samples to other experimental conditions, i.e., buffered Aβ solution or PBS for in vivo microinjection. However, bacterial amyloids like FapC and curli can make amyloids over a range of conditions.^[ ^93 ^] FapCS were produced by sonicating an aqueous solution of FapC fibrils (10 × 10^−6 M) at 20 power of a probe sonicator (Sonics Vibracell: 750 watts and 20 kHz) for 2 min with 1 s on/off cycle. For in vitro cross‐seeding experiments, 50 × 10^−6 M of Aβ monomers were incubated with 5 × 10^−6 M of FapCS (10:1 molar ratio, Aβ:FapCS) at 37 °C. bLg amyloids were synthesized by heating of bLg monomers (80 °C, pH 2) of 10 mg mL^−1 solution for 24 h. Prior to the production of bLgS, the bLg amyloid solution was brought to pH 7 and then sonicated, similar to FapC, to generate bLgS.
Aβ (Anaspec Inc., purity ≥ 95%) was dissolved in 100 µL of hexafluoro‐2‐propanol (HFIP) and incubated at room temperature for 3 h. The acquired aliquots of this solution were freeze dried and stored at −20 °C for further experimentation. […] For the ThT kinetic assay, a 100 µL of aqueous solution containing Aβ (50 × 10^−6 M), FapCS or bLgS (5 × 10^−6 M) and ThT dye (100 × 10^−6 M) was incubated (37 °C) in a 96‐well plate. The ThT fluorescence (excitation: 445 nm/ emission: 485 nm) was recorded at specified time intervals for 50 h. Kinetic parameters (rate constant k, half‐life t 1/2 and lag‐time) were calculated as described.^[ ^94 ^] Briefly, kinetic curves were fitted to a sigmoidal curve =y0+ymax−y0/1+e^−(t−t1/2)k , where y 0 and y max are initial and final ThT fluorescence values, allowing us to calculate lag time = t 1/2 − 2/k.

Aβ [2] = target: T1, Aβ; test: TEM imaging of Aβ with FapC species or bLgS; details: 12 h incubation, uranyl acetate negative stain
Protocol: Aβ incubated in the presence or absence of FapCS, FapC monomers, FapC fibrils or bLgS were subjected to TEM imaging. After incubation for 12 h, a drop of sample was applied on a glow‐discharged carbon‐coated copper grid. After 1 min, the sample was blotted and then negatively stained with uranyl acetate (1%) for 30 s. The dried grid was then imaged with a Technei F20 TEM at 200 kV. For AFM, a drop of sample was placed on freshly cleaved mica surface and rinsed with water after 2 min and dried with pressurized air. The sample was scanned with an AFM (Nanoscope VIII Multimode Scanning Force Microscopes, Bruker), covered with an acoustic hood to minimize the vibrational noise. Images were acquired under the tapping mode with a silicon nitride cantilever (Bruker). AFM images were processed with Nanoscope Analysis 1.5 software to flatten the background and to calculate the statistical parameters.

zebrafish larvae [3] = test: Congo red imaging of Aβ fibrillization in zebrafish larval brain; assay type: in vivo, zebrafish (AB, Danio rerio); details: for Congo red fluorescence / Aβ fibrillization in larval brain (in words): 2 d postinjection
Protocol: (§1) Aβ (HFIP‐treated) was dissolved in PBS (pH 7.4) to make a stock solution. Aβ (100 × 10^−15 M) was injected into the cerebroventricular space of one week old zebrafish larvae. Aβ with FapCS was injected at a 10:1 molar ratio (Aβ:FapCS, 100 × 10^−15:10 × 10^−15 M). PBS alone and untreated larvae were used as negative controls. Zebrafish larvae were anesthetized by adding a few drops of tricaine (0.4%) in the petri dish. When larvae stopped to move in response to the tapping stimuli, the larvae were transferred to an injection template made from 1% agarose gel. Microinjection of Aβ was performed with a calibrated microneedle and pneumatic microinjection system (PV830 WPI), under a stereomicroscope. The injection pressure was set to 20 psi, the injection volume was 10 nL, and the injections were made with a micromanipulator. The tip of the needle was inserted into the ventricular space of larvae and penetration across the soft skin of dorsal tissue (central meeting point of both telencephalons) was not more than 0.3 mm. After microinjection, the larvae were transferred to the fresh Holtfreter's buffer in petri dish and incubated at 28 ± 0.5 °C for further observation.
To monitor Aβ fibrillization in the brain of zebrafish larvae, the Aβ or Aβ + FapCS injected larvae were further injected with Congo red 2 days or one week posttreatment. Congo red (100 × 10^−15 M) was injected to the cerebroventricular space of the zebrafish larvae and placed back in Holtfreter's buffer (1 h) to allow staining of Aβ plaques in the brain tissues of larvae and elimination of excess dye. Whole mount imaging of zebrafish larvae was performed via the brightfield and red fluorescence channels of a fluorescence microscope. All images were captured under the same exposure and intensity settings of the microscope. Relative red fluorescence intensities were measured from the images by using Fiji ImageJ and represented as fraction of 1. Aβ at one week was considered as a positive control (100% or fraction 1) while buffer only was considered as a negative control (0% or fraction 0).

zebrafish larvae [4] = test: Behavioral pathology of zebrafish larvae (Zebrabox); assay type: in vivo, zebrafish (AB, Danio rerio); details: 2 d postinjection, 1 h observation
Protocol: as §1, with “After microinjection, the larvae were transferred to the fresh Holtfreter's buffer in petri dish and incubated at 28 ± 0.5 °C for further observation.” left out
Behavior of zebrafish larvae was observed by an automated zebrafish behavior recording system Zebrabox (Viewpoint). […] The trajectories of the zebrafish movements were also recorded by the instrument and all behavior measurements were done in a 96‐well plate with one larva per well. […]

For amyloid beta [Aβ], the “fibrillization rate constant (k)” value (Aβ [1]; Aβ 50 × 10^−6 M alone or with FapCS 5 × 10^−6 M) was 0.7 h⁻¹, the TEM observation (Aβ [2]) was “prefibrillary oligomers” and the “Congo red fluorescence / Aβ fibrillization in larval brain (in words)” value (zebrafish larvae [3]) was “no fibrillization was observed”. For the same molecule, the “larval swimming behavior (in words)” value (zebrafish larvae [4]) was “slightly lower movement frequency”.

B1: FapCS: FapC seeds obtained by sonication of mature FapC fibrils (P. aeruginosa) (protein)
chain: GNEGGWHPPKPNPQSNNKGGATALVVDTQQNYNNKVSNFGTLNNASVSGSIKDASGNVGVNVAAGDNNQQANAAALASADASFVFGTATASTSVLQSGYGNTLNNYSNPNTASLSNSANNVSGNLGVNVAAGNFNQQKNDLAAAVSNGQYSTAGSAASQTSTGNTTVNSANYAYGGTYVSLKLNADGSYKGTSDQIGDVYLDTWEGQTHPGGSNTGHIDVDSQAQGAKDLNHDGGAFAFKEKGDVDLKGTVSGFIPAIVGFKTPVTNNASLSNSLQNVSGNVGVNIAAGGGNQQSNSLSIAAGCSSCPAGGESLGF
In the case of B1, the “effect on half-life t1/2 of Aβ (in words)” value (Aβ [1]; 5 × 10^−6 M with Aβ 50 × 10^−6 M, **, p < 0.005) is reported as “significantly shortened”, the “effect on rate constant k of Aβ (in words)” value (Aβ [1]; 5 × 10^−6 M with Aβ 50 × 10^−6 M, FapCS *, p < 0.05, FapC monomer and fibrils **, p < 0.005) is reported as “significantly increased” and the “lag time of Aβ (in words)” value (Aβ [1]; Aβ 50 × 10^−6 M with FapCS 5 × 10^−6 M, **, p < 0.005) is reported as “significantly shortened”. The “effect on Aβ fibrillization (ThT)” value (Aβ [1]; Aβ 50 × 10^−6 M, seeds/FapC species 5 × 10^−6 M, ThT fluorescence ex 445/em 485 nm) was “acceleration of Aβ fibrillization”, the TEM observation (Aβ [2]) was “appeared to adsorb onto the growing Aβ fibers” and the “Congo red fluorescence / Aβ fibrillization in larval brain (in words)” value (zebrafish larvae [3]) was “insignificant fluorescence was observed; also recorded: did not show any retention of Congo red fluorescence in the brain”. The “Congo red fluorescence in larval brain (in words)” value (zebrafish larvae [3]; one week postinjection, Figure S12A) was “insignificant fluorescence was observed” and the “larval swimming behavior (in words)” value (zebrafish larvae [4]) was “significantly aggravated (**, P < 0.005) Aβ toxicity and reduced the movement frequency and total travel distance”.
